Laboratory results from US20170340734A1 (INSERM INSTITUT NATIONAL DE LA SANT ET DE LA RECHERCHE M …, published 2017).

Assays:
murine AXL = target: T1, murine AXL (murine, UniProt Q00993 19-443, limits assumed); assay: not described (FIG. 6)
T1 construct: also called murine form of AXL
T1 sequence (looked up): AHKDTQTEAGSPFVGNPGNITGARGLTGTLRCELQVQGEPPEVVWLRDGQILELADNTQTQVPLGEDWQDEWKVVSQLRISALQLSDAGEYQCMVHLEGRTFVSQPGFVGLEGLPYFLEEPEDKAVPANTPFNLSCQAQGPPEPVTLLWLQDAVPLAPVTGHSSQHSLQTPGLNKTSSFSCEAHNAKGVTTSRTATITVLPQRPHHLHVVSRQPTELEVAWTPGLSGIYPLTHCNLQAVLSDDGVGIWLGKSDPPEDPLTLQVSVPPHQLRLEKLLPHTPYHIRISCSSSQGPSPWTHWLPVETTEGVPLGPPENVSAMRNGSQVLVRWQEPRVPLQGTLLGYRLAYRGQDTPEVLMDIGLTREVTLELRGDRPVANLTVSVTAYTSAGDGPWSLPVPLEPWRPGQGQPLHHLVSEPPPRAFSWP

human AXL = target: T2, human AXL (human, UniProt P30530 26-449, limits assumed); assay: not described (FIG. 6)
T2 construct: In the degradation, internalization and homodimerization experiments the receptor stood on the tumor cell surface; also called AXL receptor; human form of AXL
T2 sequence (looked up): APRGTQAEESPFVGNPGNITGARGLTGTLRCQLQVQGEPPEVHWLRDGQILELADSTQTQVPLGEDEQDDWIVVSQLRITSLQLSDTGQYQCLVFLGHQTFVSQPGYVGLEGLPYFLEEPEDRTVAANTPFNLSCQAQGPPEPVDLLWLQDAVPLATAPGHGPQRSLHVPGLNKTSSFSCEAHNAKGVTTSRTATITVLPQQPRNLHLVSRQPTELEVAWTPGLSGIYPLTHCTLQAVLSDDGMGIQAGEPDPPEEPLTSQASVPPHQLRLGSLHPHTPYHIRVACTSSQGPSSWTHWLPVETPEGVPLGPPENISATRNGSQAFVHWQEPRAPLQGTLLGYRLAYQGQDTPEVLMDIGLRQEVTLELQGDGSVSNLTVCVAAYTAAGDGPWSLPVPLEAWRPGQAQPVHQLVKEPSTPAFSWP

binding result (murine AXL): binds
binding result (human AXL): binds
B1: human monoclonal antibody D4 (antibody, V domains shown)
VH: EVQLVESGGSLVKPGGSLRLSCAASGFTFSNYSMNWVRQAPGKGLEWISSISGSSRYIYYADFVKGRFTISRDNATNSLYLQMNSLRAEDTAVYYCVRGRKDSGTIYHWGRGTLVTVSS
VL: QSVLTQPASVSGSPGQSITISCAGTSSDVGGYNYVSWYQQHPGKAPKLMIYEDSKRPSGVSNRFSGSKSGNTASLTISGLQAEDEADYYCKKDDYSLRFTFGGGTKLAVLG
notes: also called D4 antibody; D4 human monoclonal antibody
